Experimental data from the supplement of paper PMC10724198.
± gives the standard deviation of the averaged measurements.

Test system: Saccharomyces cerevisiae
Test: protein stability index of tFT-peptide fusion (C-terminal peptide) (PSI (0-1 scale)); higher = more stable (slower turnover)
Conditions: genetic background: wild type; temperature: 30 C
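Also: PSI is a weighted mean of sequencing reads over stability bins, variants kept only with over 10 reads, mCherry proximal and sfGFP distal, peptide attached via GGGS linker.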

Row | Sequence | protein stability index
1 | TRQGDLYYYLYV | 0.67 ± 0.024
2 | TRRKVKYTELYQ | 0.69 ± 0.041
3 | TRRVKWSWLLKP | 0.7 ± 0.08
4 | TRSAFPSFPTRS | 0.68 ± 0.02
5 | TRTSRGRTLTTL | 0.583 ± 0.016
6 | TRVGNMVARRGS | 0.687 ± 0.048
7 | TSFAPPSLPRHS | 0.735 ± 0.056
8 | TSGAEKLPIANS | 0.648 ± 0.05
9 | TSGAKKISSGTQ | 0.707 ± 0.036
10 | TSLPPNLMRTAA | 0.634 ± 0.04
11 | TSNGSGLMFQSQ | 0.62 ± 0.019
12 | TSNLRIISTWRV | 0.685 ± 0.024
13 | TSPGCPFAFITL | 0.714 ± 0.052
14 | TSPPPPIPLPPR | 0.695 ± 0.032
15 | TSPSPLPPLFFT | 0.706 ± 0.0087
16 | TSPTKSPTTTNN | 0.709 ± 0.039
17 | TSSTATWSYRNY | 0.673 ± 0.036
18 | TSTHSFLDFGTG | 0.6272 ± 0.0011
19 | TSTTGLHVSAMS | 0.727 ± 0.021
20 | TSVVRIGVYRAS | 0.613 ± 0.037
21 | TTGNTHALSHAH | 0.717 ± 0.055
22 | TTLNAETCFPLS | 0.702 ± 0.043
23 | TTLPFLLGSGGF | 0.677 ± 0.065
24 | TTVESYLDRRRY | 0.664 ± 0.035
25 | TTVSSSLSPVPD | 0.7181 ± 0.0054
26 | TVERGGSLSLVV | 0.718 ± 0.026

Row | Sequence | protein stability index
27 | TVKAGESILEQR | 0.716 ± 0.013
28 | TVMRPSVGHVDG | 0.68 ± 0.038
29 | TVSRNKKKKQIQ | 0.613 ± 0.038
30 | TVVYPFHSGGFA | 0.694 ± 0.024
31 | TWGRPGGDHPRE | 0.708 ± 0.0096
32 | TWRRAVSERPYP | 0.725 ± 0.1
33 | TWRRGSKPHVRS | 0.724 ± 0.044
34 | TYKKAKIRKKYI | 0.6237 ± 0.0045
35 | TYLGISNLHPAI | 0.709 ± 0.031
36 | TYLSAWQFCVAS | 0.579 ± 0.049
37 | TYRPEMYSRVLT | 0.738 ± 0.011
38 | TYRYWGTLRYYD | 0.761 ± 0.07
39 | TYVPRYPPPLFP | 0.72 ± 0.061
40 | VAACVSLFCGAL | 0.719 ± 0.074
41 | VAAEGCGAALSR | 0.627 ± 0.0099
42 | VAESCVIVFWLG | 0.506 ± 0.0056
43 | VAGGGGGCLVDC | 0.646 ± 0.022
44 | VAGKVWREAEPG | 0.656 ± 0.029
45 | VAGSQYTAGGDV | 0.635 ± 0.044
46 | VALSSECVLSGV | 0.656 ± 0.025
47 | VARLCVPSGPGH | 0.721 ± 0.0096
48 | VASLSGGQISFG | 0.612 ± 0.029
49 | VASTSLPDIRGV | 0.631 ± 0.07
50 | VASWNSDKTKND | 0.752 ± 0.12
51 | VAVGIEGGWWGV | 0.78 ± 0.042
52 | VAYRGGGGWRIS | 0.6865 ± 0.005

Row | Sequence | protein stability index
53 | VAYSKWIGEIRD | 0.71 ± 0.038
54 | VAYYFVRNIIGE | 0.667 ± 0.056
55 | VCAVAQPCRVQL | 0.683 ± 0.025
56 | VCCDRWWFAFWE | 0.7241 ± 0.0012
57 | VCGPCVESLETR | 0.689 ± 0.059
58 | VCGVSWSRFPVL | 0.716 ± 0.0099
59 | VCILPVTCAGMF | 0.6224 ± 0.0012
60 | VCLFWGVSAGCK | 0.65 ± 0.04
61 | VCLGGWCMWGWR | 0.585 ± 0.017
62 | VCNLIRILSLVI | 0.496 ± 0.031
63 | VCVCCMGCGLGV | 0.68773 ± 5.6e-05
64 | VCVGCAACIVGV | 0.636 ± 0.026
65 | VCVVGGSILRAV | 0.711 ± 0.048
66 | VCWLTCCGQLIA | 0.514 ± 0.0068
67 | VCWVRGGGVLDG | 0.711 ± 0.053
68 | VCYGELTISNLE | 0.654 ± 0.045
69 | VDCTCLPKRTYE | 0.643 ± 0.1
70 | VDGLRASRFVGS | 0.7 ± 0.048
71 | VDHIKAHSDSEE | 0.756 ± 0.1
72 | VDKLVRCISVSI | 0.5428 ± 0.0013
73 | VDLLFLMVGTSV | 0.574 ± 0.011
74 | VDRLDAACCIFC | 0.601 ± 0.031
75 | VDVSVLVGLNFV | 0.797 ± 0.056
76 | VECEARTVEKAN | 0.63072 ± 0.00022
77 | VECGVAGSLDLA | 0.713 ± 0.014
78 | VEEYKKRNNKEG | 0.64 ± 0.01

Row | Sequence | protein stability index
79 | VEHQVNMGDGEM | 0.63525 ± 3.1e-05
80 | VEYSVVDKRLLY | 0.651 ± 0.065
81 | VEYVRSGTLVSG | 0.658 ± 0.06
82 | VFFSCVRFCLWF | 0.562 ± 0.0082
83 | VFLISPSSFSPP | 0.738 ± 0.033
84 | VFLNRGSHQQET | 0.691 ± 0.056
85 | VFLQRIDDKSPY | 0.712 ± 0.046
86 | VFLRSGCSGWGE | 0.827 ± 0.094
87 | VFLRSPSRAPSL | 0.72 ± 0.078
88 | VFMPVGVGGGSC | 0.678 ± 0.05
89 | VFPLSLLLTSFL | 0.591 ± 0.047
90 | VFPSLCITSVCT | 0.53 ± 0.02
91 | VFPVGSGLWRVF | 0.63 ± 0.016
92 | VFRFAPILHSHR | 0.585 ± 0.019
93 | VFSCPLLFASFS | 0.672 ± 0.041
94 | VFSPVLVCKMGE | 0.698 ± 0.024
95 | VFTCTGVLFGGM | 0.768 ± 0.12
96 | VFTSPPPLPSPP | 0.728 ± 0.029
97 | VGADVLAYRGVA | 0.604 ± 0.025
98 | VGASRAGGEVSR | 0.651 ± 0.013
99 | VGCACGYGGCGL | 0.682 ± 0.058
100 | VGCEGGRRGVGG | 0.65 ± 0.059
101 | VGCSDFSAIVLD | 0.713 ± 0.069
102 | VGCSSHAFGSSV | 0.686 ± 0.053
103 | VGCSVGHFQRLF | 0.677 ± 0.017
104 | VGDGQGGGGQGG | 0.661 ± 0.022

Row | Sequence | protein stability index
105 | VGDGQGWGGQGG | 0.688 ± 0.0075
106 | VGDRCDECGFWA | 0.699 ± 0.0043
107 | VGFLGFFVVEGV | 0.545 ± 0.033
108 | VGGGGGAEGAGW | 0.739 ± 0.12
109 | VGGGGGGGWWHW | 0.805 ± 0.011
110 | VGGGGLGVEAWG | 0.613 ± 0.059
111 | VGGGGVGAGVWG | 0.653 ± 0.086
112 | VGGGPAALGMWI | 0.689 ± 0.077
113 | VGGGVGVPGVLG | 0.672 ± 0.012
114 | VGGIVGGFCRGR | 0.701 ± 0.069
115 | VGGPRVLVRGVY | 0.6754 ± 0.0055
116 | VGGRVESLGVGD | 0.584 ± 0.017
117 | VGGVGGLWVGAV | 0.7143 ± 0.0018
118 | VGGVWAGGGCSF | 0.651 ± 0.12
119 | VGGWGWLPLPWC | 0.678 ± 0.13
120 | VGGWWAREVVEL | 0.753 ± 0.0085
121 | VGHCSEGTFYPG | 0.65 ± 0.12
122 | VGICWLTEPVLY | 0.731 ± 0.089
123 | VGKFGGAGGICQ | 0.685 ± 0.013
124 | VGKIRWIGFGGW | 0.695 ± 0.051
125 | VGLGGTGGESRY | 0.706 ± 0.027
126 | VGLGMREWLGVE | 0.758 ± 0.026
127 | VGNPHKRGWRAR | 0.60903 ± 0.00027
128 | VGPFRISRSFTG | 0.7174 ± 0.004
129 | VGQGVPEGGGQW | 0.726 ± 0.018
130 | VGRGEEAHTPRR | 0.678 ± 0.013

Row | Sequence | protein stability index
131 | VGRGGGVSLGGR | 0.671 ± 0.082
132 | VGRGGPGVGGSW | 0.736 ± 0.043
133 | VGRVNRNERCQR | 0.587 ± 0.022
134 | VGSSGDEWGRYG | 0.7332 ± 0.0046
135 | VGVCCLSGDGFV | 0.6889 ± 0.0048
136 | VGVGGEQISIEY | 0.723 ± 0.054
137 | VGVGWAALRWYG | 0.6761 ± 0.0047
138 | VGVIREGKENGN | 0.656 ± 0.023
139 | VGVSGAGFSWGG | 0.712 ± 0.0095
140 | VGVVGGRWCGRG | 0.648 ± 0.0099
141 | VGVVLNEPYSQE | 0.702 ± 0.011
142 | VGVWWWWCFGSW | 0.595 ± 0.069
143 | VGWAGHVWFWWG | 0.683 ± 0.064
144 | VGWFELWGVSSG | 0.76 ± 0.052
145 | VGWHFPDGVVDC | 0.8 ± 0.12
146 | VGWQGRWWVWGG | 0.5679 ± 0.005
147 | VGWVLGCRGLGW | 0.694 ± 0.067
148 | VHDPLLPIFLIR | 0.684 ± 0.042
149 | VHFGVLSLGKRH | 0.769 ± 0.16
150 | VHRMWINARDCV | 0.676 ± 0.05
151 | VIFCVGRFSGGS | 0.645 ± 0.085
152 | VIFIRCFNFQDG | 0.614 ± 0.052
153 | VILFINRIDDGK | 0.616 ± 0.057
154 | VIQMVIYEKDQR | 0.681 ± 0.04
155 | VIRQPSSKLWIQ | 0.6559 ± 0.0057
156 | VISLFSSLCSRL | 0.797 ± 0.05

Row | Sequence | protein stability index
157 | VIVHFIWPSVGR | 0.652 ± 0.03
158 | VKASPSDGGIVP | 0.725 ± 0.035
159 | VKESILVGRYDC | 0.709 ± 0.016
160 | VKKSTPIKKPQT | 0.651 ± 0.062
161 | VKPVLEILKTKT | 0.663 ± 0.037
162 | VKSMVCQGHLGI | 0.722 ± 0.043
163 | VKVKRCVRKVGG | 0.687 ± 0.046
164 | VLANAAGLEGFA | 0.681 ± 0.041
165 | VLCVDQVEVSFV | 0.678 ± 0.03
166 | VLDCRDVSCHVL | 0.661 ± 0.0081
167 | VLDPRGEFFSHP | 0.657 ± 0.044
168 | VLFLESWLRFRT | 0.623 ± 0.073
169 | VLGSYFNGIWLF | 0.534 ± 0.019
170 | VLGVDVIQVCPI | 0.682 ± 0.018
171 | VLGWGSKCLVGS | 0.7 ± 0.035
172 | VLHGFGSLRDRV | 0.717 ± 0.017
173 | VLLAAFLLPGLR | 0.634 ± 0.033
174 | VLLQDLSYLIGQ | 0.707 ± 0.065
175 | VLLSSPSLLFFE | 0.703 ± 0.039
176 | VLLSTLHLRGFG | 0.537 ± 0.04
177 | VLMDVVGLGSSS | 0.683 ± 0.019
178 | VLNRFENRNSKA | 0.7098 ± 0.0035
179 | VLPLRPGRKLSG | 0.664 ± 0.054
180 | VLPVLTWWGELG | 0.733 ± 0.018
181 | VLRCVLTYGKPS | 0.673 ± 0.031
182 | VLRGYRRVGVPP | 0.616 ± 0.016

Row | Sequence | protein stability index
183 | VLRSSFYLSFPR | 0.611 ± 0.013
184 | VLRSTQGAINRI | 0.717 ± 0.02
185 | VLSFFQCSWVLL | 0.574 ± 0.057
186 | VLSFPYLSRKCI | 0.546 ± 0.037
187 | VLSGAPGLIVYA | 0.602 ± 0.043
188 | VLSLPPLFRTSA | 0.636 ± 0.0086
189 | VLTSRCGLLFVL | 0.62 ± 0.044
190 | VLTSSVLPSFFP | 0.627 ± 0.018
191 | VLVPVDRCGYIG | 0.619 ± 0.11
192 | VLWIVDLFACEG | 0.585 ± 0.0037
193 | VLYPVISVLTTL | 0.629 ± 0.011
194 | VMKAVNKTKRNV | 0.664 ± 0.041
195 | VMVTMGNMDSEA | 0.635 ± 0.031
196 | VMVYLRSPLLDR | 0.748 ± 0.059
197 | VNAGAPGVLAWV | 0.739 ± 0.021
198 | VNAVLFWPRQLS | 0.619 ± 0.013
199 | VNFGWWVVGSRS | 0.685 ± 0.062
200 | VNHVVRFFFSSH | 0.676 ± 0.019
201 | VPAALAGADCSP | 0.763 ± 0.085
202 | VPAGDPPGAWKA | 0.746 ± 0.025
